{
  "source": "the DeepSol protein solubility set",
  "data": [
    {"test": "soluble on expression in E. coli; label from the status in PepcDB or PDB records", "values": [
      {"sequence": "SLTTTEVVMENVTAFWEEGFGELFEKAKQNNNNRKTSNGDDSLFFSNFSLLGTPVLKDINFKIERGQLLAVAGSTGAGKTSLLMMIMGELEPSEGKIKHSGRISFCSQFSWIMPGTIKENIIFGVSYDEYRYRSVIKACQLEEDISKFAEKDNIVLGEGGITLSGGQRARISLARAVYKDADLYLLDSPFGYLDVLTEKEIFESCVCKLMANKTRILVTSKMEHLKKADKILILHEGSSYFYGTFLELYHYPADRFVAGFIGSPKMNFLPVKVTATAIDQVQVELPMPNRQQVWLPVESRDVQVGANMSLGIRPEHLLPSDIADVILEGEVQVVEQLGNETQIHIQIPSIRQNLVYRQNDVVLVEEGATFAIGLPPEDCHLFREDGTACRRLHKEPGV", "soluble on expression in E. coli": "soluble"},
      {"sequence": "MFNVSALAAATPSIASVSSVASPSEQHGLSTSVGVGVNDTTSRTGDGGAASSASSASAAPQQQSQSALHNKLEAKWDTLLPTDTNLQCSTWPDSIPLLAGYSATPTFSFDPCTYGSYDPSAYFASNGIAGSMYTLPDQFPRSENDMLDNSNTSNGNKSDKDGIKLEDEDEILEDEENDEEDDGTGKRKKRKRRVLFTKAQTYELERRFRSQKYLSAPEREALAMQIRLTPTQVKIWFQNHRYKTKKSHTDKPINAALLTTMPNAFSSQSTAASFPTRAMPIPMLVRDSSARSSDISSTSPYTVAFGSANSGYLPTPSAYLPATSGYFSNGPSAASSYMTNTQWWPS", "soluble on expression in E. coli": "not soluble"},
      {"sequence": "MSLKNTFVYQAEKPVIKLLQITDPHLFKDESAELLGVNTQASFAQVLKEIQQENNEFDVILATGDLVQDSSDEGYIRFVEMMKPFNKPVFWIPGNHDFQPKMAEFLNQPPMNAAKHLLLGEHWQALLLDSQVYGVPHGQLSQHQLDLLKETLGKNPERYTLVVLHHHLLPTNSAWLDQHNLRNSHELAEVLAPFTNVKAILYGHIHQEVNSEWNGYQVMATPATCIQFKPDCQYFSLDTLQPGWREIELHSDGSIRTEVKRIQQAEFFPNMQEEGYEGGSHHHHHH", "soluble on expression in E. coli": "soluble"},
      {"sequence": "MGSDKIHHHHHHMWIGFDYGSANCAVGIMHEGKISQIPLSANSQYLPSTLYALDRELIAQAVYQGISQDKKSEYAKLRSSQLSRAIQVRHELDLSMDEQTVFVGQAAIDAYLEMPEEGFYVRSPKSFLGANGLREEQVALFEDIVTLMMLHVKGITDNYLADNGLPAATHAVIGRPVNFQSIGGEKSNQQAEAILSLAAKRAGFTQVAFLFEPVAAGMDFEASLEQDSTVLVVDVGGGTTDCSVVRMGPSFAANKQREQDCLGHSGQRVGGNDLDIALAMKGFMPSLGLDSLLKSGKPMPSAPFWQAVAVNDVSAQRDFASLNARKLLDTLVKDAKEPELVKRLKKVQQDQLGYKLVRQAEGAKVTLSDAMQTECDLGFIASDLSVELTQAQFSHFIIEPLAKIEALIQAAVAKADVNPDLVYVTGGTARSPAIYAKIASVYPEAKIVVGDHFGSVTAGLTRWTQKVF", "soluble on expression in E. coli": "not soluble"},
      {"sequence": "MSLSSRYTPSEMAQALGAGLLSFPVTHFDADMAFDEPAYRSNLDWLSSHPAAGLFAAGGTGELFSLTLDEVDRAVRAAVTQTAGRMPVIAPAGYGTAIAVAMAQAAERNDADGILLFPPYLTECDADGVAEHVERVCKATSLGVIVYGRANARLDDVALARVAERCPNLVGYKDGIGDVERMTRIYARLGDRLLYVGGLPTAETFALPYLEMGVTTYSSAIFNFLPEWALSFYAAVRARDHATIYRELNDFVLPYTVLRNRRAGYAVSIVKAGMRAVGRPAGPVRTPLADLTEDEFAQLTQLIGGRREGHHHHHH", "soluble on expression in E. coli": "not soluble"},
      {"sequence": "MDESMRHDIALFRYGLIAPLVNGQVEPKAYLNEVGGRVHSIPHQGDKPIAAKTILDWCARYKKGGFDALKPKRRSDRGRSRRLSPDDEDHILALRKEHPTMPVTLFYEQLTKQGDIPTTLSYFTIYRLLKKHNLVGKEILPMPERKRFAYDQINELWQGDLSHGPTIRVHGKAQKTFLIAYIDDCSRLVPYAQFFPSEKFDGLRIVTKEAVLRCGKPKRIYSDNGKIYRSEVLQYACAEMGITLIHTQPYDPQSKGKIERFFRTVQTRFYPLLELNPPKSLDELNERFWKWLEEEYHRKPHASLDGKTPHEVFQSQVERVVWIEDIDWLDAIFLKREHRKVKADGTITLNKQLYEVPPRFIGQSIELRYDERGVYVYEDGKRVAEAIRVRLEDNAYVKRHRSPFAAVSAKEGEQDV", "soluble on expression in E. coli": "not soluble"},
      {"sequence": "MAHHHHHHMENHKDDAVLLKHGWCEMLKGGVIMDVKSVEQAKIAEEAGAIGVMVLENIPSELRNKEGVARSVDPSKVEEIKKCVSINVLAKVRIGHFVEAQILEELKIDMIDESEVLTIADEMHHIDKHKFKTPFVCGCTNLGEALRRISEGASMIRTKGEAGTGNIIEAIKHIRTVNNEIKYLCSLSDSEVYHFAKKINAPIDLVLLTKKLKRLPVVNFAAGGVATPADAAMCMQLGMDGVFVGSGIFESENPRKMAASIVSAVSNFNNPKILLDVSMNLGKAMCGSTRVSDKWKNKNEEHTKFLTPQ", "soluble on expression in E. coli": "not soluble"},
      {"sequence": "MTRQERILQLPFFENKRELAEQVLKMEREEHVYLPDQFEIKQVPPYSFAEKEAIIGRIHEFYFVSIGSDGAWKYQLFKDEMKCREFFVTLSGITDQQIAFWFNNIELLKGA", "soluble on expression in E. coli": "not soluble"},
      {"sequence": "MGSDKIHHHHHHLNILVTNDDGIMSPGIILLAEALSEDHEVLVVAPDVERSATGHAITIRTPLWAKEVKVGNKNIGYAINGTPADCVKLGLLAISDRKIDLVISGVNKGQNMGIDVLYSGTVSGALEGAVTDTPSIAVSSSDWSNPEYETAARFMVNFLKIYDVSKMPDFTALNINVPSIKYEELKGWKVTRQSRRRYKDYFEKRKDPYGNNYYWIFGEVVEDECSTDCDFNAVKSNFVSITPLHAIMTDKKYFDELKEISEGWSE", "soluble on expression in E. coli": "not soluble"},
      {"sequence": "SLTTSTALVLDINNANLDQQQAFAITAANRDEILQAASSIRLGDVMSVHDFGRSATDASYLDTMLEDVKVIDQKESGKQLNEIAFLSRQISDSVQPSDLQRVISRIPIIGFVISRLTFMQRRALNRFDSVKGQMDILADGISSISTGYLEQNVKLDAMYNDVLADIRAQGINIVASKLVIDSIEGELQTRQEEFKKNKTNTLLSIEINDIQYQLDTLKKRRKDMISMQQKSFDDLTMLRMMQQNNLALVDKFRSVEELTLPAAKRGHLIVDALEKQNAGVKLIEAIDDATNALALRQAELVKDNTIRIAKQSHRSVYDAKTLDRISTLMNEAIAEAHAIHKSNSDGHLALEKRAIEWQEERRQRLINGMGKNKLSNH", "soluble on expression in E. coli": "not soluble"},
      {"sequence": "MGSDKIHHHHHHAERKNALKVDNGHYYKWKEGNIFYTKTGTGKPILLIHDTDSGASGEEWAKVAKKLAKNNTIYTIDLLGCGRSDKPSIQYTSYMYVQIITAFVDDVIGKPVNVAATNLSTAPVIMANALSKDLFNKIILINPVSLQQLKCIPDKSTKFKQNIINLPIVGTFIYNKLMSPIKVDLLFRNKFISRSQLISDNMKDAYYESAHKGQSRGKYLYSSILSNYINTNIAPALKNLDKDVSIIASTGIKNNMDVINNYHKLNSKCDIIHIANAKLYPQLELPEKTASIIKKIVTN", "soluble on expression in E. coli": "not soluble"},
      {"sequence": "DPAGLLDLRQGMFAQLVAQNVLLIDGPLSWYSDPGLAGVSLTGGLSYKEDTKELVVAKAGVYYVFFQMELRRVVAGEGSGSVSLALHLMPLRSAAGAAALALTVDLPPASSEARNSAFGFQGRLLHLSAGQRLGVHLHTEARARHAWQLTQGATVLGLFRVTPEIPA", "soluble on expression in E. coli": "soluble"},
      {"sequence": "MTVETQLNPTQPVNQQIYRILRRDIVHCLIPPGTPLSEKEVSTRFNVSRQPVREAFIKLAENGLIQIRPQRGSYVNKISLSQVQNGCFVRQAIECAVVRRAAAMITDNQCYQLAQNLHLQHIAIERKQIDDFFQLDDDFHQKLAQIADCQLAWDTIENIKATIDRVRYMSLDHVSPPEMLLRQHHDIFSALENRDGNAVESAMTQHLQEISESVQLIRQENSGWFSEE", "soluble on expression in E. coli": "not soluble"},
      {"sequence": "MSLTCGSGFGGRAFSCISACGPRPGRCCITAAPYRGISCYRGLTGGFGSHSVCGGFRAGSCGRSFGYRSGGVCGPSPPCITTVSVNESLLTPLNLEIDPNAQCVKQEEKEQIKSLNSRFAAFIDKVRFLEQQNKLLETKLQFYQNRECCQSNMEPLFEGYIETLRREAECVEADSGRLASELNHVQEVLEGYKKKYEEEVSLRATAENEFVALKKDVDCAYLRKSDLEANVEALIQEIDFLRRLYEEEIRILQSHISDTSVVVKLDNSRDLNMDCIIAEIKAQYDDIVTRSRAEAESWYRSKCEEMKATVIRHGETLRRTKEEINELNRMIQRLTAEVENAKCQNSKLEAAVAQSEQQGEAALSDARCKLAELEGALQKAKQDMACLIREYQEVMNSKLGLDIEIATYRRLLEGEEQRLCEGIGAVNVCVSSSRGGVVCGDLCVSGSRPVTGSVCSAPCNGNVAVSTGLCAPCGQLNTTCGGGSCGVGSCGISSLGVGSCGSSCRKCEGHHHHHH", "soluble on expression in E. coli": "not soluble"},
      {"sequence": "MSLSYRAHGLPVLENLLEQDFSASGPNQKWAGDITYLRTDEGWLYLAVVIDLWSRAVIGWSMSPRMTAQLACDALQMALWRRRRPESVIVHTDRGGQYCSGDYQALLKRHNLRGSMSAKGYCYDNACVESFFHSLKVECIHGERFSSREIMRATVFNYIECDYNRWRRHSACGGLSPEQFENHNLAEGHHHHHH", "soluble on expression in E. coli": "not soluble"},
      {"sequence": "APSASFERRQGSVNPYIGRSPLVIKSYAEKLEETIAYFEAQGDELNAARTRTVQGIPTFAWISDSATIDTIQPLIADAVAHQEASGEQVLVQLVIYNLPDRDCAAKASDGEFHLDDDGANKYRAYVDRIVAELSTADADKLHFSIVLEPDSLGNMVTNMHVPKCQGAATAYKEGIAYTIASLQKPNIDLYIDAAHGGWLGWNDNLRPSAEIFKETLDLARQITPNATVRGLAINVSNYNPYKTRAREDYTEWNNAYDEWNYVKTLTPHLQAVGFPAQFIVDQGRSGREGIRTEWGQWCNIRNAGFGIRPTTDQAIVDSANVDAIVWVKPGGESDGTSDVNAVRFDENCRSPASHVPAPEAGEWFNEFVVNLVINANPPLEPTYAAAALEHHHHHH", "soluble on expression in E. coli": "soluble"},
      {"sequence": "MSLVIRRLYQFCASHVVRNCSSLKCAQNIHGHNYEVEVFIETNRLDNANMALDFGLMQQEMQVFIESFDHAHHFWDKESLEFQRFIENHCVRYVKCSFNLSAESYALMFLYYLTKILQKSVFSNDEGELKVSSVRVHETKNGYAESFLKDEGHHHHHH", "soluble on expression in E. coli": "soluble"},
      {"sequence": "MGCSSSALNKAGDSSRFPSVTSNEHFSTAEESESCFAQPKPHALGRESTVDGNVQRESRPPLQKLKVSAEPTANGVKPLQEQPLAKDVAPGRDATDQSGSTEKTQPGEGLEESGPPQPGGKEDAPAAEGKKKDAGAGTEAESLKGNAEAQPLGPEAKGQPLQAAVEKDSLRAVEVTENPQTAAEMKPLGTTENVLTLQIAGELQPQGTVGKDEQAPLLETISKENESPEILEGSQFVETAEEQQLQATLGKEEQPQLLERIPKENVTPEVLDRSQLVEKPVMNDPFHKTPEGPGNMEQIQPEGIVGSMEHPARNVEAGAYVEMIRNIHTNEEDQRIEGETGEKVETDMENEKVSEGAETKEEETGEVVDLSAAT", "soluble on expression in E. coli": "soluble"},
      {"sequence": "MGSDKIHHHHHHMQQFPRLARVGLGFRRELIPALKSGVPATIDFFEIAPENWIDLGGGAARDLLFFTERYPFVCHGLSLSIGGPAPLDEILLQKIRQFLDQHRVLLYTEHLSYCSDDGHLYDLLPIPFTEEAVKYVAERVRRTQDILERRIALENASFYVASPISDMSELDFIRAVLLEADCDLHLDVNNVYVNSINHDYDPVDFIRALPSDRIVYMHMAGHHKEAENLIIDTHGADVIDPVWSLLDQTYGMHGVAPTLLERDFNIPPLEQLMREVLHIALIQAQHADSGDASAT", "soluble on expression in E. coli": "not soluble"},
      {"sequence": "LSIPEDYQARLQPNRVEGSYPLVRMEFTGATVDAPLMSQISRKYNIDVSILSSDLDYAGGVKFGMMVAELFGNEQDDSAAIEYLREHNVKVEVLGYVL", "soluble on expression in E. coli": "soluble"}
    ]}
  ]
}
